Results on eleven molecules are retold here after paper PMC4369733, “Design of a PDZbody, a bivalent binder of the E6 protein from human papillomavirus” (Scientific Reports, 2015).

Test [1] concerns the target Lipo-E6_(18)-C: C-terminal domain of HPV18 E6 (residues 82-158) linked via the N-terminus to His-tagged lipoyl domain (HPV18) (UniProt P06463). As to the kind of experiment: stopped-flow fluorescence kinetics; displacement: pre-formed complex of PDZ variant (0.75 µM) and Lipo-E6_(18)-C (0.75 µM) mixed with dansylated peptide (20, 150 and 300 µM); 10°C, 50 mM potassium phosphate pH 7.5, 240 µM β-mercaptoethanol; koff = kobs at high peptide.

For test [2] the target is unchanged. The test can be described thus: stopped-flow fluorescence kinetics; association: PDZ variant (6-20 µM) mixed with Lipo-E6_(18)-C (2 µM), Trp342 emission; 10°C, 50 mM potassium phosphate pH 7.5, 240 µM β-mercaptoethanol; kon from kobs versus PDZ concentration; Kd = koff/kon.
Test [3] deals with pseudo wild type SAP97 PDZ2 (residues 311-407; I342W, C378A) (human) (UniProt Q12959). As to the kind of experiment: ITC; full-length HPV16 E6 titrated into the PDZ variant or PDZbody; ITC200, 25°C, 20 mM sodium phosphate pH 6.8, 200 mM NaCl, 1 mM TCEP; single-site model. (In general: In ITC the heat of successive injections is recorded.)
In test [4] the target is PDZϕ9 (SAP97 PDZ2 pseudo wild type with L391F, K392M) (human) (UniProt Q12959). Described as above.
The target in test [5] is PDZbody8 (E6AP helix, Gly-Ser linker of 3 residues, PDZϕ9) (UniProt Q12959). The test is described as above.
For test [6], the target named is PDZbody20 (E6AP helix, Gly-Ser linker of 15 residues, PDZϕ9) (UniProt Q12959). The test is described as above.
Test [7] addresses PDZbody25 (E6AP helix, Gly-Ser linker of 20 residues, PDZϕ9) (UniProt Q12959). The description is as above.
Test [8] addresses PDZbody15 (E6AP helix, Gly-Ser linker of 10 residues, PDZϕ9) (UniProt Q12959). Described as above.
Test [9] addresses T1, pseudo wild type SAP97 PDZ2 (residues 311-407; I342W, C378A) (human, UniProt Q12959 311-407, I342W | C378A).
T1 construct: SAP97 (also called human Dlg), second PDZ domain (PDZ2), residues 311-407; Residues of the thrombin site probably stay at the N-terminus after cleavage (surmised); also called pWT; source: E. coli BL21(DE3) pLysS, purified (nickel-Sepharose, thrombin digestion, nickel reload, Source 30Q); not shown: His tag, N-terminal, cleaved; lipoyl protein domain (Bacillus stearothermophilus), N-terminal, …
T1 sequence (looked up): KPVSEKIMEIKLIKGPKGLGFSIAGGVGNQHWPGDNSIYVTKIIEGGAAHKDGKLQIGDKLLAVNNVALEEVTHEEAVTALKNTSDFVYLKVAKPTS
The test can be described thus: stopped-flow fluorescence kinetics; displacement: pre-formed complex of PDZ variant (0.75 µM) and Lipo-E6_(18)-C (0.75 µM) mixed with dansylated peptide (20, 150 and 300 µM); 10°C, 50 mM potassium phosphate pH 7.5, 240 µM β-mercaptoethanol; koff = kobs at high peptide. The conditions noted are these: both partners purified.

For test [10], the target named is T1, pseudo wild type SAP97 PDZ2 (residues …). The test can be described thus: stopped-flow fluorescence kinetics; association: PDZ variant (6-20 µM) mixed with Lipo-E6_(18)-C (2 µM), Trp342 emission; 10°C, 50 mM potassium phosphate pH 7.5, 240 µM β-mercaptoethanol; kon from kobs versus PDZ concentration; Kd = koff/kon. The conditions noted are these: both partners purified.

Regarding “PDZϕ7 (SAP97 PDZ2 pseudo wild type with E385K, K392R) (from UniProt Q12959 311-407) (designed binder)”, the koff (as a rule, a measure of how fast the partners let go of each other) in [1] was 5.5 s⁻¹. In [2], the Kd (as a rule, the constant that tells how readily two partners part at equilibrium) amounted to 610 nM and the kon (as a rule, a measure of how fast the partners come together) turned out to be 8.9e+06 M⁻¹ s⁻¹.

“PDZϕ6 (SAP97 PDZ2 pseudo wild type with E385K, K392Q) (from UniProt Q12959 311-407) (designed binder)” gave a koff in test [1] of 10.2 s⁻¹. In [2], the Kd is 2500 nM and the kon was 4e+06 M⁻¹ s⁻¹.

For the molecule “PDZϕ3 (SAP97 PDZ2 pseudo wild type with L391F, K392A) (from UniProt Q12959 311-407) (designed binder)”, the koff in test [1] was 0.75 s⁻¹. Further, in test [2], the Kd came to 160 nM and the kon worked out at 4.6e+06 M⁻¹ s⁻¹.

As to “PDZϕ2 (SAP97 PDZ2 pseudo wild type with E385H, L391F, K392Q) (from UniProt Q12959 311-407) (designed binder)”, the koff in test [1] amounted to 1.5 s⁻¹. In test [2], this molecule returned a Kd of 260 nM and a kon of 5.9e+06 M⁻¹ s⁻¹.

For the molecule “PDZϕ4 (SAP97 PDZ2 pseudo wild type with E385H, K392R) (from UniProt Q12959 311-407) (designed binder)”, in test [1], the koff is 5.1 s⁻¹. In addition, in [2], the Kd is 600 nM and the kon turned out to be 8.5e+06 M⁻¹ s⁻¹.

Molecule “PDZϕ1 (SAP97 PDZ2 pseudo wild type with E385R) (from UniProt Q12959 311-407) (designed binder)” registered a koff in test [1] of 7.5 s⁻¹. Besides, in test [2], the Kd came to 920 nM and the kon amounted to 8.2e+06 M⁻¹ s⁻¹.

Take “PDZϕ8 (SAP97 PDZ2 pseudo wild type with E385T) (from UniProt Q12959 311-407) (designed binder)”: the off-rate (koff) in test [1] is 3.8 s⁻¹. Also, in test [2], the Kd came out at 660 nM and the kon is 5.8e+06 M⁻¹ s⁻¹.

The molecule “PDZϕ5 (SAP97 PDZ2 pseudo wild type with E385H, K392T) (from UniProt Q12959 311-407) (designed binder)” gave a koff in test [1] of 3.8 s⁻¹. Moreover, in test [2], the Kd was found to be 780 nM and the kon came to 4.9e+06 M⁻¹ s⁻¹.

For the molecule “PDZϕ9 (SAP97 PDZ2 pseudo wild type with L391F, K392M) (from UniProt Q12959 311-407) (designed binder)”, the koff in test [1] turned out to be 0.55 s⁻¹. In test [2], this molecule showed a Kd of 93 nM and a kon of 5.9e+06 M⁻¹ s⁻¹.

As to “full-length HPV16 E6 (from UniProt P03126 1-158) (natural protein)”, the Kd came to 6300 nM in test [3]; 910 nM in test [4]; 200 nM in [5]; 65 nM in test [6]; 79 nM in [7]; 160 nM in test [8]. The dH in [3] was -4.6 kcal/mol; in [4], -9.9 kcal/mol; in test [5], -19.1 kcal/mol; in test [6] it was -17 kcal/mol; in test [7], -19.8 kcal/mol; in test [8], -16.5 kcal/mol. For the same molecule, the stoichiometry N (commonly a count of units in the complex or per binding partner) in test [3] worked out at 0.75; in test [4] it was 0.75; in test [5], 0.76; in test [6] it was 0.94; in test [7], 0.92; in test [8], 0.93.

B1: Lipo-E6_(18)-C: C-terminal domain of HPV18 E6 (residues 82-158) linked via the N-terminus to His-tagged lipoyl domain (domain or fragment)
chain: SDSVYGDTLEKLTNTGLYNLLIRCLRCQKPLNPAEKLRHLNEKRRFHNIAGHYRGQCHSCCNRARQERLQRRRETQV
notes: HPV18 E6 C-terminal domain, residues 82-158, UniProtKB P06463; A thrombin cleavage site (LVPRGS) stands between the lipoyl domain and the E6 domain and was not cut; also called HPV18 E6 C-terminal domain; source: E. coli BL21(DE3) pLysS, purified (nickel-Sepharose, Source 30Q; thrombin digestion omitted); not shown: His tag, N-terminal, kept; lipoyl protein domain (Bacillus stearothermophilus), …
As to B1, the koff in [9] came out at 3.3 s⁻¹. In test [10], this molecule displayed a Kd of 540 nM and a kon of 6.2e+06 M⁻¹ s⁻¹.
